In patent publication US20140271457A1 (AbbVie / Abbott, published 2014):

B1: DVD3121 (bispecific antibody, human IgG1, kappa)
heavy: not shown
light: DVVMTQSPLSLPVTLGQPASISCRSSQSLVHSHGNTYLHWYQQRPGQSPRLLIYTVSNRFSGVPDRFSGSGSGTDFTLKISRVEAEDVGVYYCSQSTHVPYTFGGGTKVEIKRTVAAPSVFIFPPDIQMTQSPSSLSASVGDRVTITCRASQDIENYLNWYQQKPGKAPKLLIYYTSRLQSGVPSRFSGSGSGTDFTLTISSLQPEDFATYFCQQGNTQPPTFGQGTKLEIKRTVAAPSVFIFPPSDEQLKSGTASVVCLLNNFYPREAKVQWKVDNALQSGNSQESVTEQDSKDSTYSLSSTLTLSKADYEKHKVYACEVTHQGLSSPVTKSFNRGEC
B2: DVD2688 (bispecific antibody, human IgG1, kappa)
heavy: not shown
light: DIQMTQSPSSLSASVGDRVTISCRASQDIRNYLNWYQQKPGKAPKLLIFYTSKLHSGVPSRFSGSGSGTDYTLTISSLQPEDIATYYCQQGLTPPLTFGGGTKVEIKRGGSGGGGSGDIQMTQSPSSLSASVGDRVTITCRASQLVSSAVAWYQQKPGKAPKLLIYWASARHTGVPSRFSGSGSGTDFTLTISSLQPEDFATYYCQQHYKTPFTFGQGTKLEIKRTVAAPSVFIFPPSDEQLKSGTASVVCLLNNFYPREAKVQWKVDNALQSGNSQESVTEQDSKDSTYSLSSTLTLSKADYEKHKVYACEVTHQGLSSPVTKSFNRGEC
B3: DVD3117 (bispecific antibody, human IgG1, kappa)
heavy: not shown
light: DIQMTQSPSSLSASVGDRVTITCRASQDIENYLNWYQQKPGKAPKLLIYYTSRLQSGVPSRFSGSGSGTDFTLTISSLQPEDFATYFCQQGNTQPPTFGQGTKLEIKRTVAAPDIQMTQSPSSLSASVGDRVTITCRASQLVSSAVAWYQQKPGKAPKLLIYWASARHTGVPSRFSGSGSGTDFTLTISSLQPEDFATYYCQQHYKTPFTFGQGTKLEIKRTVAAPSVFIFPPSDEQLKSGTASVVCLLNNFYPREAKVQWKVDNALQSGNSQESVTEQDSKDSTYSLSSTLTLSKADYEKHKVYACEVTHQGLSSPVTKSFNRGEC
B4: DVD3119 (bispecific antibody, human IgG1, kappa)
heavy: not shown
light: DVVMTQSPLSLPVTLGQPASISCRSSQSLVHSHGNTYLHWYQQRPGQSPRLLIYTVSNRFSGVPDRFSGSGSGTDFTLKISRVEAEDVGVYYCSQSTHVPYTFGGGTKVEIKRTVAAPDIQMTQSPSSLSASVGDRVTITCRASQDIENYLNWYQQKPGKAPKLLIYYTSRLQSGVPSRFSGSGSGTDFTLTISSLQPEDFATYFCQQGNTQPPTFGQGTKLEIKRTVAAPSVFIFPPSDEQLKSGTASVVCLLNNFYPREAKVQWKVDNALQSGNSQESVTEQDSKDSTYSLSSTLTLSKADYEKHKVYACEVTHQGLSSPVTKSFNRGEC
B5: DVD3122 (bispecific antibody, human IgG1, kappa)
heavy: not shown
light: DVVMTQSPLSLPVTLGQPASISCRSSQSLVHSHGNTYLHWYQQRPGQSPRLLIYTVSNRFSGVPDRFSGSGSGTDFTLKISRVEAEDVGVYYCSQSTHVPYTFGGGTKVEIKRTVAAPDIQMTQSPSSLSASVGDRVTITCRASQDIENYLNWYQQKPGKAPKLLIYYTSRLQSGVPSRFSGSGSGTDFTLTISSLQPEDFATYFCQQGNTQPPTFGQGTKLEIKRTVAAPSVFIFPPSDEQLKSGTASVVCLLNNFYPREAKVQWKVDNALQSGNSQESVTEQDSKDSTYSLSSTLTLSKADYEKHKVYACEVTHQGLSSPVTKSFNRGEC
B6: AB267 (antibody, V domains shown)
VH: EVQLVESGGGLVQPGGSLRLSCAASGFSLTNNNVNWVRQAPGKGLEWVGGVWAGGATDYNSALKSRFTISRDNSKNTAYLQMNSLRAEDTAVYYCARDGGYSSSTLYAMDAWGQGTLVTVSS
VL: DIQMTQSPSSLSASVGDRVTITCRASEDIYNALAWYQQKPGKAPKLLIYNTDTLHTGVPSRFSGSGSGTDYTLTISSLQPEDFATYFCQHYFHYPRTFGQGTKVEIKR
B7: DVD3114 (bispecific antibody)
heavy: not shown
light: DIQMTQSPSSLSASVGDRVTITCRASQDIENYLNWYQQKPGKAPKLLIYYTSRLQSGVPSRFSGSGSGTDFTLTISSLQPEDFATYFCQQGNTQPPTFGQGTKLEIKRTVAAPDVVMTQSPLSLPVTLGQPASISCRSSQSLVHSHGNTYLHWYQQRPGQSPRLLIYTVSNRFSGVPDRFSGSGSGTDFTLKISRVEAEDVGVYYCSQSTHVPYTFGGGTKVEIKRTVAAPSVFIFPPSDEQLKSGTASVVCLLNNFYPREAKVQWKVDNALQSGNSQESVTEQDSKDSTYSLSSTLTLSKADYEKHKVYACEVTHQGLSSPVTKSFNRGEC
B8: DVD3158 (bispecific antibody, human IgG1, kappa)
heavy: not shown
light: DIQMTQSPSSLSASVGDRVTITCRASQGIRNYLNWYQQKPGKAPKLLIYYASNLEVGVPSRFSGSGSGTDYTLTISSLQPEDFATYYCQQDNRFPYTFGGGTKVEIKRGGSGGGGSGDIQMTQSPSSLSASVGDRVTITCKASQLVSSAVAWYQQKPGKAPKLLIYWASTLHTGVPSRFSGSGSGTDFTLTISSLQPEDFATYYCQQHYRTPFTFGQGTKLEIKRTVAAPSVFIFPPSDEQLKSGTASVVCLLNNFYPREAKVQWKVDNALQSGNSQESVTEQDSKDSTYSLSSTLTLSKADYEKHKVYACEVTHQGLSSPVTKSFNRGEC
B9: DVD3159 (bispecific antibody, human IgG1, kappa)
heavy: not shown
light: DIQMTQSPSSLSASVGDRVTITCRASQGIRNYLNWYQQKPGKAPKLLIYYASNLEVGVPSRFSGSGSGTDYTLTISSLQPEDFATYYCQQDNRFPYTFGGGTKVEIKRTVAAPDIQMTQSPSSLSASVGDRVTITCKASQLVSSAVAWYQQKPGKAPKLLIYWASTLHTGVPSRFSGSGSGTDFTLTISSLQPEDFATYYCQQHYRTPFTFGQGTKLEIKRTVAAPSVFIFPPSDEQLKSGTASVVCLLNNFYPREAKVQWKVDNALQSGNSQESVTEQDSKDSTYSLSSTLTLSKADYEKHKVYACEVTHQGLSSPVTKSFNRGEC
B10: DVD3118 (bispecific antibody, human IgG1, kappa)
heavy: not shown
light: DVVMTQSPLSLPVTLGQPASISCRSSQSLVHSHGNTYLHWYQQRPGQSPRLLIYTVSNRFSGVPDRFSGSGSGTDFTLKISRVEAEDVGVYYCSQSTHVPYTFGGGTKVEIKRGGSGGGGSGDIQMTQSPSSLSASVGDRVTITCRASQDIENYLNWYQQKPGKAPKLLIYYTSRLQSGVPSRFSGSGSGTDFTLTISSLQPEDFATYFCQQGNTQPPTFGQGTKLEIKRTVAAPSVFIFPPSDEQLKSGTASVVCLLNNFYPREAKVQWKVDNALQSGNSQESVTEQDSKDSTYSLSSTLTLSKADYEKHKVYACEVTHQGLSSPVTKSFNRGEC
B11: DVD2689 (bispecific antibody, human IgG1, kappa)
heavy: not shown
light: DIQMTQSPSSLSASVGDRVTISCRASQDIRNYLNWYQQKPGKAPKLLIFYTSKLHSGVPSRFSGSGSGTDYTLTISSLQPEDIATYYCQQGLTPPLTFGGGTKVEIKRTVAAPDIQMTQSPSSLSASVGDRVTITCRASQLVSSAVAWYQQKPGKAPKLLIYWASARHTGVPSRFSGSGSGTDFTLTISSLQPEDFATYYCQQHYKTPFTFGQGTKLEIKRTVAAPSVFIFPPSDEQLKSGTASVVCLLNNFYPREAKVQWKVDNALQSGNSQESVTEQDSKDSTYSLSSTLTLSKADYEKHKVYACEVTHQGLSSPVTKSFNRGEC

How the values were obtained:
Recombinant Human IL-13 = Recombinant Human IL-13 (human, UniProt P35225 35-146, limits assumed); assay: cell-based or functional assay
Chain of Recombinant Human IL-13 (P35225 35-146 limits assumed): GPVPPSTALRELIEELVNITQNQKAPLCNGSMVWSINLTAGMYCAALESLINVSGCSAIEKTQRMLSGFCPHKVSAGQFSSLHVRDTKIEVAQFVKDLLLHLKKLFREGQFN

Recombinant Human β-NGF = Recombinant Human β-NGF (human, UniProt P01138 122-241); assay: cell-based or functional assay
Chain of Recombinant Human β-NGF (P01138 122-241 limits assumed): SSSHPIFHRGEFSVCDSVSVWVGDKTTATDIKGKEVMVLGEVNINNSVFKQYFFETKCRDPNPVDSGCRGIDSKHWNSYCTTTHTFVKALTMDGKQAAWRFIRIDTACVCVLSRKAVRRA

Row | Binder | IL-13 Neutralization Assay IC50 (Recombinant Human IL-13) [nM] | NGF Neutralization Assay IC50 (Recombinant Human β-NGF) [pM]
1 | B1 | 0.013 | –
2 | B2 | 0.094 | –
3 | B3 | 0.015 | –
4 | B4 | 0.051 | –
5 | B5 | 0.011 | –
6 | B6 | – | 7
7 | B7 | 0.781 | –
8 | B8 | 0.137 | –
9 | B9 | 0.087 | –
10 | B10 | 0.013 | –
11 | B11 | 0.147 | –
